Data as given in US20210371520A1 (AGILENT TECHNOLOGIES, published 2021).

Molecular target: T1, human LAG-3 (Lymphocyte-Activation Gene 3) protein (human, UniProt P18627 23-525)
T1 construct: whole, on cells; Endogenous LAG-3 in normal and tumour tissue sections (IHC), not a recombinant protein; also called CD223
T1 sequence (looked up): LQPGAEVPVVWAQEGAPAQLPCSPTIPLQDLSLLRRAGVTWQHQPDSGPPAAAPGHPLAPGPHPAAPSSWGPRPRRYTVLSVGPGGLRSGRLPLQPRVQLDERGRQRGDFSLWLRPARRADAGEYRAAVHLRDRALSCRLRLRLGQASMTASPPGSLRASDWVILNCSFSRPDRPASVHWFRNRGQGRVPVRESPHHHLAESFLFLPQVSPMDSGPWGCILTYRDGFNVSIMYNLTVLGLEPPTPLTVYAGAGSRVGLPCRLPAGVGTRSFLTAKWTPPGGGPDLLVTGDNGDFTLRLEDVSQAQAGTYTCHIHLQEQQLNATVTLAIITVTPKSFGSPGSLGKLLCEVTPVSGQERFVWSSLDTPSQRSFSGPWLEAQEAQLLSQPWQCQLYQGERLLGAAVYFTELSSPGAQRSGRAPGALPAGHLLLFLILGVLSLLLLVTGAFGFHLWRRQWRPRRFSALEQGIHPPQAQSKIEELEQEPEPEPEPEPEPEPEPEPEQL
Test: double IHC staining on normal tonsil
Description: FIG. 9 illustrates tumor tissue samples of Lung Squamous cell Carcinoma (SQC) (FIG. 10) and kidney renal cell carcinoma (RCC) (FIG. 11); the double IHC staining method follows the protocol of Petersen, et al. 2018 [18] using the EnVision FLEX+™ system in a sequential manner, where the exemplary LAG-3 antibody, clone 12H8 (HRP DAB chromagen) constitutes the first layer followed by a sulfuric acid block step and adding an extra EnVision FLEX+™ staining layer on top with PD1 antibody, clone NAT105 (magenta chromogen)); and FIG. 9 illustrates that LAG-3 is co-localized with the PD1 T cell marker in a subpopulation of activated T cells in the germinal center of the tonsil. Other cells belonging to the activated T cell population is only stained by PD1. The B lymphocytes in the germinal center are negative for both the LAG-3 and the PD1 antibody, illustrating the specificity of both these antibodies: (Red arrow: strongly LAG-3 positive, DAB overshadows magenta PD1. Green arrow: weakly pos LAG-3 with both DAB membrane and DAB golgi and PD1 magenta stain visible). PD1 positive, LAG-3 negative T cells: (orange arrow).

binding result: binds
B1: rabbit anti-human LAG-3 antibody, clone 12H8 (antibody, V domains shown)
VH: QSVKESEGGLFKPTDTLTLTCTVSGIDLSSGILVWVRQAPGSGLEWIGGIDANGRAYYASWAKSRSTITRNTNENTVTLKMTSLTAADTATYFCAGGAWNIWGPGTLVTVSS
VL: AQVLTQTPSPVSAAVGGTVTIKCQSSQSVYDSNTLAWFQQKPGQPPKLLMYSASTLAFGVPSRFSGSGSGTQFTLTISDLECADAATYYCLGSYDCSSVDCTAFGGGTEVVVK
notes: also called LAG-3 clone 12H8; exemplary LAG-3 antibody
